This assay deals with HA-tagged p26 (long-distance movement protein p26 of Pea enation mosaic virus 2) (Pea enation mosaic virus 2). Kind of assay: SDS-PAGE and Western blot; lysates of agroinfiltrated N. benthamiana leaves (10x PBS, 2% beta-mercaptoethanol), 10% SDS-PAGE, blot with anti-HA antibody; co-infiltrated with p14, GFP-3'UTR(PEMV) and U1D. (In general: Immunoblotting shows a protein as a band on a membrane.)

One may read the stoichiometry N as the number of molecules, sites or subunits per partner or assembly.

Substance “HA-tagged p26 (long-distance movement protein p26 of Pea enation mosaic virus 2) (natural protein)” showed a stoichiometry N of 2.
